According to patent US9416353B2, “Covalent tethering of functional groups to proteins and substrates therefor” (Promega Corporation, priority 2004, dated 2016):

How the values were obtained:
[1] = Hydrolysis of FAP by GST-BlaZ (WT or mutants); assay type: biochemical; settings: up to 60 minutes of co-incubation
Method: The chromogenic substrate 6-β-[(Furylacryloyl)amido]penicillanic acid triethylamine salt (FAP) was purchased from Calbiochem (La Jolla, Calif.). […] All assays were performed at 25° C. in 0.1 M potassium phosphate buffer at pH 6.8.

[2] = pH-indicator dye assay of hydrolysis of Cl-alkanes by DhaA (WT or mutant); assay type: biochemical; settings: 0.1 mg/ml of enzyme, 10 mM substrate, pH 7.0-8.2
Source text: To study the effect of a point mutation on the activity of DhaA (WT or mutant) hydrolysis of Cl-alkanes, a pH-indicator dye system as described by Holloway et al. (1998) was employed.

[3] = MagneGST assay
Method: Bacterial colonies were picked into 96-well plates containing LB+Amp and incubated with shaking at 30° C. The cultures were diluted 1:20 into 96 well plates containing fresh TB medium, Amp and 0.1 mM IPTG. The plates were incubated at 30° C. with shaking overnight. The 96 well plates containing the IPTG induced cultures were centrifuged and supernatants removed. DhaA mutants were normalized for protein concentration by saturating protein capture on MagneGST™ PMPs. […] The plates were shaken at about 900 rpm for 10 minutes at room temperature. The particles were washed three times with PBST using a MagnaBot® 96 magnetic separation device. The wash solution was removed and MagneGST™ elution solution was added and the plates were allowed to shake at room temperature (about 900 rpm for 5 minutes). Supernatants were transferred to a new, flat bottom, transparent 96 well plate and the fluorescence intensity was measured using an excitation wavelength at 550 nm and an emission wavelength at 580 nm.
Four colonies at random of each identified hit were inoculated into 200 μL LB+Amp and grown overnight at 30° C. in flat bottom 96 well plates. Overnight cultures were diluted 1:50 into 200 μL TB ampicillin supplemented with 0.1 mM IPTG and grown overnight at 30° C. and 37° C. Induced cultures were re-assayed using the MagneGST™ based screen.

[4] = In vivo labeling of DhaA mutants expressed in CHO-K1 cells (cell-to-gel analysis); assay type: cell-based; settings: 5 μM substrate
Method: (§1) Proteins (2-10 μl/lane) were resolved on SDS-PAGE (4-20% gradient gels).

[5] = In vivo stability of DhaA mutants in transiently transfected CHO-K1 cells; assay type: cell-based; settings: 12, 24 and 48 hours post-transfection
Method: as §1

[6] = DhaA capture using immobilized biotin chloroalkane substrates (streptavidin plates, ELISA-type); assay type: binding; settings: for reaction with immobilized biotin-PEG4-14-Cl: titration
Method: Using an excess of substrate (about 2 μmol), the plates could bind approximately 75 μmol of biotin per well. […] Reactions between immobilized substrate and mutant DhaAs were performed using purified GST-DhaA-Flag fusions. Various concentrations of protein (100 μL; diluted in PBSTB) were incubated with immobilized substrate for various times at 25° C., and the reactions were stopped by emptying the plates and washing 4× with PBST. To detect bound DhaA, 100 μL anti-GST-HRP (Amersham) was added to each well at a 1:10,000 dilution (in PBSTB) and the plates incubated for 1 hour at 25° C.

[7] = Thermostability analysis of purified DhaA mutants (residual labeling activity, FP); assay type: physicochemical; settings: for thermostability (residual activity): 60 minute incubations at various temperature
Method: The thermostability profiles of the DhaA mutants were determined by measuring the residual activity of the purified proteins following 15, 30 or 60 minute incubations at 4, 22, 30, 37, 42, 50 or 60° C. The FP assay was performed at room temperature (about 25° C.). […] For each clone, the labeling rate (slope of the linear range) was calculated for each condition. The rate observed following a 15 minute incubation at 4° C. was arbitrarily assigned as 100% activity. The residual activity (%) was calculated for each condition. To determine stability, for each incubation time, the % of residual activity was plotted against the incubation temperatures. To calculate half-life, for each incubation temperature, the % of residual activity was plotted against the incubation time. The time where 50% activity was lost was extrapolated from the graph.

[8] = Precipitation of DhaA.WT and mutants with (NH4)2SO4; assay type: physicochemical; settings: 2 hours, 4° C.
Method: Aliquots of the supernatant obtained from E. coli expressing DhaA (WT or one of the mutants) were treated with increasing concentrations of (NH4)2SO4. The proteins were exposed to each (NH4)2SO4 concentration for 2 hours (4° C.), pelleted by centrifugation, dialyzed overnight against buffer A, and resolved on SDS-PAGE.

[9] = assay type: binding; settings: biotin-PEG4-14-Cl substrate

B1: BlaZ.N170Q (protein, UniProt P00807 25-281, looked up, variant N170Q)
Beta-lactamase: KELNDLEKKYNAHIGVYALDTKSGKEVKFNSDKRFAYASTSKAINSAILLEQVPYNKLNKKVHINKDDIVAYSPILEKYVGKDITLKALIEASMTYSDNTANNKIIKEIGGIKKVKQRLKELGDKVTNPVRYEIELNYYSPKSKKDTSTPAAFGKTLNKLIANGKLSKEQKKFLLDLMLNNKSGDTLIKDGVPKDYKVADKSGQAITYASRNDVAFVYPKGQSEPIVLVIFTNKDNKSDKPNDKLISETAKSVMKEF
Question: Which “hydrolysis of FAP” value [1] does the source give for B1 here?
Answer: could not be detected

B2: DhaA.WT: wild-type Rhodococcus rhodochrous dehalogenase (DhaA), generally GST at the N-terminus and FLAG at the C-terminus (protein, UniProt P0A3G2 1-293, looked up)
Haloalkane dehalogenase: MSEIGTGFPFDPHYVEVLGERMHYVDVGPRDGTPVLFLHGNPTSSYLWRNIIPHVAPSHRCIAPDLIGMGKSDKPDLDYFFDDHVRYLDAFIEALGLEEVVLVIHDWGSALGFHWAKRNPERVKGIACMEFIRPIPTWDEWPEFARETFQAFRTADVGRELIIDQNAFIEGALPKCVVRPLTEVEMDHYREPFLKPVDREPLWRFPNELPIAGEPANIVALVEAYMNWLHQSPVPKLLFWGTPGVLIPPAEAARLAESLPNCKTVDIGPGLHYLQEDNPDLIGSEIARWLPAL
modifications: N-terminal GST, C-terminal FLAG tag
Question: Which “activity with 1-Cl-butane” value [2] does the source give for B2 here?
Answer: 5 units/mg of protein

B3: DhaA.H272F H11: first generation DhaA.H272F mutant with K175M and C176G (protein, UniProt P0A3G2 1-293, looked up, variant K175M C176G H272F)
Haloalkane dehalogenase: MSEIGTGFPFDPHYVEVLGERMHYVDVGPRDGTPVLFLHGNPTSSYLWRNIIPHVAPSHRCIAPDLIGMGKSDKPDLDYFFDDHVRYLDAFIEALGLEEVVLVIHDWGSALGFHWAKRNPERVKGIACMEFIRPIPTWDEWPEFARETFQAFRTADVGRELIIDQNAFIEGALPMGVVRPLTEVEMDHYREPFLKPVDREPLWRFPNELPIAGEPANIVALVEAYMNWLHQSPVPKLLFWGTPGVLIPPAEAARLAESLPNCKTVDIGPGLFYLQEDNPDLIGSEIARWLPAL
Question: Which “signal relative to the respective parents” value [3] does the source give for B3 here?
Answer: considerably higher signal

Question: And the “in vivo labeling performance compared to parent DhaA.H272F” value [4]?
Answer: superior performance characteristics

Question: And the “production of active protein (fluorescent signal after labeling)” value [5]?
Answer: more active protein after 48 hours

Question: And the “reaction with immobilized biotin substrates” value ([6]; all biotin substrates tested)?
Answer: reacted poorly

Question: What about the “thermostability (residual activity)” value [7] of the same molecule?
Answer: retained significant labeling activity following incubation as high as 50 °C

Question: What about the half-life ([7]; at 50° C.) of the same molecule?
Answer: 58 min

B4: DhaA.H272Q: DhaA mutant, His272 replaced with Gln (protein, UniProt P0A3G2 1-293, looked up, variant H272Q)
Haloalkane dehalogenase: MSEIGTGFPFDPHYVEVLGERMHYVDVGPRDGTPVLFLHGNPTSSYLWRNIIPHVAPSHRCIAPDLIGMGKSDKPDLDYFFDDHVRYLDAFIEALGLEEVVLVIHDWGSALGFHWAKRNPERVKGIACMEFIRPIPTWDEWPEFARETFQAFRTADVGRELIIDQNAFIEGALPKCVVRPLTEVEMDHYREPFLKPVDREPLWRFPNELPIAGEPANIVALVEAYMNWLHQSPVPKLLFWGTPGVLIPPAEAARLAESLPNCKTVDIGPGLQYLQEDNPDLIGSEIARWLPAL
Question: For B4, which “(NH4)2SO4 concentration that precipitates the protein” value [8] is on record?
Answer: 10%

B5: DhaA.H272F YL: DhaA.H272F based mutant with Y273L (protein, UniProt P0A3G2 1-293, looked up, variant H272F Y273L)
Haloalkane dehalogenase: MSEIGTGFPFDPHYVEVLGERMHYVDVGPRDGTPVLFLHGNPTSSYLWRNIIPHVAPSHRCIAPDLIGMGKSDKPDLDYFFDDHVRYLDAFIEALGLEEVVLVIHDWGSALGFHWAKRNPERVKGIACMEFIRPIPTWDEWPEFARETFQAFRTADVGRELIIDQNAFIEGALPKCVVRPLTEVEMDHYREPFLKPVDREPLWRFPNELPIAGEPANIVALVEAYMNWLHQSPVPKLLFWGTPGVLIPPAEAARLAESLPNCKTVDIGPGLFLLQEDNPDLIGSEIARWLPAL
Question: With B5 as the molecule, how does the “reaction with immobilized biotin-PEG4-14-Cl” value [6] read?
Answer: react most efficiently

Question: And the “signal relative to the parental clones” value [9]?
Answer: significantly improved

Question: What about the “thermostability (residual activity)” value [7] of the same molecule?
Answer: relatively unstable at temperatures above 30 °C

B6: DhaA.H272F YM: DhaA.H272F based mutant with Y273M (protein, UniProt P0A3G2 1-293, looked up, variant H272F Y273M)
Haloalkane dehalogenase: MSEIGTGFPFDPHYVEVLGERMHYVDVGPRDGTPVLFLHGNPTSSYLWRNIIPHVAPSHRCIAPDLIGMGKSDKPDLDYFFDDHVRYLDAFIEALGLEEVVLVIHDWGSALGFHWAKRNPERVKGIACMEFIRPIPTWDEWPEFARETFQAFRTADVGRELIIDQNAFIEGALPKCVVRPLTEVEMDHYREPFLKPVDREPLWRFPNELPIAGEPANIVALVEAYMNWLHQSPVPKLLFWGTPGVLIPPAEAARLAESLPNCKTVDIGPGLFMLQEDNPDLIGSEIARWLPAL
Question: What does the source list for B6?
Answer: reaction with immobilized biotin-PEG4-14-Cl [6]: react most efficiently; signal relative to the parental clones [9]: significantly improved; thermostability (residual activity) [7]: relatively unstable at temperatures above 30 °C

B7: DhaA.H272F YC: DhaA.H272F based mutant with Y273C (protein, UniProt P0A3G2 1-293, looked up, variant H272F Y273C)
Haloalkane dehalogenase: MSEIGTGFPFDPHYVEVLGERMHYVDVGPRDGTPVLFLHGNPTSSYLWRNIIPHVAPSHRCIAPDLIGMGKSDKPDLDYFFDDHVRYLDAFIEALGLEEVVLVIHDWGSALGFHWAKRNPERVKGIACMEFIRPIPTWDEWPEFARETFQAFRTADVGRELIIDQNAFIEGALPKCVVRPLTEVEMDHYREPFLKPVDREPLWRFPNELPIAGEPANIVALVEAYMNWLHQSPVPKLLFWGTPGVLIPPAEAARLAESLPNCKTVDIGPGLFCLQEDNPDLIGSEIARWLPAL
Question: For B7, which “signal relative to the parental clones” value [9] is on record?
Answer: significantly improved

Question: What about the “thermostability (residual activity)” value [7] of the same molecule?
Answer: relatively unstable at temperatures above 30 °C

B8: DhaA.H272A: DhaA mutant, His272 replaced with Ala (protein, UniProt P0A3G2 1-293, looked up, variant H272A)
Haloalkane dehalogenase: MSEIGTGFPFDPHYVEVLGERMHYVDVGPRDGTPVLFLHGNPTSSYLWRNIIPHVAPSHRCIAPDLIGMGKSDKPDLDYFFDDHVRYLDAFIEALGLEEVVLVIHDWGSALGFHWAKRNPERVKGIACMEFIRPIPTWDEWPEFARETFQAFRTADVGRELIIDQNAFIEGALPKCVVRPLTEVEMDHYREPFLKPVDREPLWRFPNELPIAGEPANIVALVEAYMNWLHQSPVPKLLFWGTPGVLIPPAEAARLAESLPNCKTVDIGPGLAYLQEDNPDLIGSEIARWLPAL
Question: Which “(NH4)2SO4 concentration that precipitates the protein” value [8] does the source give for B8 here?
Answer: 10%

B9: DhaA.H272G: DhaA mutant, His272 replaced with Gly (protein, UniProt P0A3G2 1-293, looked up, variant H272G)
Haloalkane dehalogenase: MSEIGTGFPFDPHYVEVLGERMHYVDVGPRDGTPVLFLHGNPTSSYLWRNIIPHVAPSHRCIAPDLIGMGKSDKPDLDYFFDDHVRYLDAFIEALGLEEVVLVIHDWGSALGFHWAKRNPERVKGIACMEFIRPIPTWDEWPEFARETFQAFRTADVGRELIIDQNAFIEGALPKCVVRPLTEVEMDHYREPFLKPVDREPLWRFPNELPIAGEPANIVALVEAYMNWLHQSPVPKLLFWGTPGVLIPPAEAARLAESLPNCKTVDIGPGLGYLQEDNPDLIGSEIARWLPAL
Question: With B9 as the molecule, how does the “(NH4)2SO4 concentration that precipitates the protein” value [8] read?
Answer: 10%

B10: DhaA.H272F: DhaA mutant, catalytic His272 replaced with Phe (protein, UniProt P0A3G2 1-293, looked up, variant H272F)
Haloalkane dehalogenase: MSEIGTGFPFDPHYVEVLGERMHYVDVGPRDGTPVLFLHGNPTSSYLWRNIIPHVAPSHRCIAPDLIGMGKSDKPDLDYFFDDHVRYLDAFIEALGLEEVVLVIHDWGSALGFHWAKRNPERVKGIACMEFIRPIPTWDEWPEFARETFQAFRTADVGRELIIDQNAFIEGALPKCVVRPLTEVEMDHYREPFLKPVDREPLWRFPNELPIAGEPANIVALVEAYMNWLHQSPVPKLLFWGTPGVLIPPAEAARLAESLPNCKTVDIGPGLFYLQEDNPDLIGSEIARWLPAL
Question: Which “thermostability (residual activity)” value [7] does the source give for B10 here?
Answer: stable up to temperatures of 40 °C
